Reference: article PMC6381110, “Allosteric enhancement of ORP1-mediated cholesterol transport by PI(4,5)P2/PI(3,4)P2” (Nature Communications, 2019)
Values joined by “and” are separate entries in the source; they are usually repeats but may differ in a detail not shown here. Identical values can stand only once.

Tests used:
[1] = target: the molecule itself; test: SEC; Superdex-200 10/300, 10 mM Tris-HCl pH 8.0, 150 mM NaCl, 2 mM DTT; ORP1-ORD 5 uM alone or with cholesterol (free or in liposomes, 4:1); cholesterol shifts the protein towards monomer
[2] = target: the molecule itself; test: crystal structure; ORP1-ORD (534-950) with cholesterol, hanging drop 18 °C, 0.1 M Na cacodylate pH 6.2, 1.2 M Na citrate; oligomer by crystal symmetry
[3] = target: the molecule itself; test: crystal structure; ORP1-ORD (524-950) with cholesterol, hanging drop 18 °C, 0.1 M NaAc pH 4.6, 2.0 M Na formate; oligomer by crystal symmetry

B1: ORP1S (ORP1-ORD, residues 514-950) (natural protein, human, UniProt Q9BXW6 514-950, looked up)
chain: MSEEKDCGGGDALSNGIKKHRTSLPSPMFSRNDFSIWSILRKCIGMELSKITMPVIFNEPLSFLQRLTEYMEHTYLIHKASSLSDPVERMQCVAAFAVSAVASQWERTGKPFNPLLGETYELVRDDLGFRLISEQVSHHPPISAFHAEGLNNDFIFHGSIYPKLKFWGKSVEAEPKGTITLELLEHNEAYTWTNPTCCVHNIIVGKLWIEQYGNVEIINHKTGDKCVLNFKPCGLFGKELHKVEGYIQDKSKKKLCALYGKWTECLYSVDPATFDAYKKNDKKNTEEKKNSKQMSTSEELDEMPVPDSESVFIIPGSVLLWRIAPRPPNSAQMYNFTSFAMVLNEVDKDMESVIPKTDCRLRPDIRAMENGEIDQASEEKKRLEEKQRAARKNRSKSEEDWKTRWFHQGPNPYNGAQDWIYSGSYWDRNYFNLPDIY
notes: ORP1S, the short isoform encoded by human OSBPL1A, residues 514-950 on the numbering of the long isoform ORP1L (1-950); holds only the ORD; pET21b construct; In gel filtration it is a mixture of monomers, dimers and trimers; also called short isoform of OSBPL1A; source: E. coli Rosetta(DE3), purified (Ni-NTA, ion exchange, gel filtration)
[1]
  stoichiometry N: 2 and 3

B2: ORP1-ORD (residues 534-950) (domain or fragment, human, UniProt Q9BXW6 534-950, looked up)
chain: RTSLPSPMFSRNDFSIWSILRKCIGMELSKITMPVIFNEPLSFLQRLTEYMEHTYLIHKASSLSDPVERMQCVAAFAVSAVASQWERTGKPFNPLLGETYELVRDDLGFRLISEQVSHHPPISAFHAEGLNNDFIFHGSIYPKLKFWGKSVEAEPKGTITLELLEHNEAYTWTNPTCCVHNIIVGKLWIEQYGNVEIINHKTGDKCVLNFKPCGLFGKELHKVEGYIQDKSKKKLCALYGKWTECLYSVDPATFDAYKKNDKKNTEEKKNSKQMSTSEELDEMPVPDSESVFIIPGSVLLWRIAPRPPNSAQMYNFTSFAMVLNEVDKDMESVIPKTDCRLRPDIRAMENGEIDQASEEKKRLEEKQRAARKNRSKSEEDWKTRWFHQGPNPYNGAQDWIYSGSYWDRNYFNLPDIY
notes: OSBP-related domain (ORD) of human ORP1, residues 534-950 on ORP1L (1-950) numbering; Crystallised with cholesterol from Na cacodylate; also called ORP1-ORD (534-950); ORP1S lacking the N-terminal 20 amino acids; source: E. coli Rosetta(DE3), purified (Ni-NTA, ion exchange, gel filtration)
[2]
  stoichiometry N: 2

B3: ORP1-ORD (residues 524-950) (domain or fragment, human, UniProt Q9BXW6 524-950, looked up)
chain: DALSNGIKKHRTSLPSPMFSRNDFSIWSILRKCIGMELSKITMPVIFNEPLSFLQRLTEYMEHTYLIHKASSLSDPVERMQCVAAFAVSAVASQWERTGKPFNPLLGETYELVRDDLGFRLISEQVSHHPPISAFHAEGLNNDFIFHGSIYPKLKFWGKSVEAEPKGTITLELLEHNEAYTWTNPTCCVHNIIVGKLWIEQYGNVEIINHKTGDKCVLNFKPCGLFGKELHKVEGYIQDKSKKKLCALYGKWTECLYSVDPATFDAYKKNDKKNTEEKKNSKQMSTSEELDEMPVPDSESVFIIPGSVLLWRIAPRPPNSAQMYNFTSFAMVLNEVDKDMESVIPKTDCRLRPDIRAMENGEIDQASEEKKRLEEKQRAARKNRSKSEEDWKTRWFHQGPNPYNGAQDWIYSGSYWDRNYFNLPDIY
notes: OSBP-related domain (ORD) of human ORP1, residues 524-950 on ORP1L (1-950) numbering; Crystallised with cholesterol and with PI(4,5)P2; also called ORP1-ORD (524-950); source: E. coli Rosetta(DE3), purified (Ni-NTA, ion exchange, gel filtration)
[3]
  stoichiometry N: 3
